B1: IgFD-33(anti-CD3/EGFR) (bispecific antibody, human IgG1, kappa)
chain 1: QVQLQESGPGLVKPSETLSLTCTVSGGSVSSGDYYWTWIRQSPGKGLEWIGHIYYSGNTNYNPSLKSRLTISIDTSKTQFSLKLSSVTAADTAIYYCVRDRVTGAFDIWGQGTMVTVSSASTKGPEVQLVESGGGLVQPGGSLRLSCAASGFTFNTYAMNWVRQAPGKGLEWVARIRSKYNNYATYYADSVKDRFTISRDDSKNTLYLQMNSLRAEDTAVYYCVRHGNFGNSYVSWFAYWGQGTLVTVSSASTKGPSVFPLAPSSKSTSGGTAALGCLVKDYFPEPVTVSWNSGALTSGVHTFPAVLQSSGLYSLSSVVTVPSSSLGTQTYICNVNHKPSNTKVDKKVEPKSCDKTHTCPPCPAPPVAGPSVFLFPPKPKDTLMISRTPEVTCVVVDVSHEDPEVKFNWYVDGVEVHNAKTKPREEQYNSTYRVVSVLTVLHQDWLNGKEYKCKVSNKGLPSSIEKTISKAKGQPREPQVYTLPPCRDELTKNQVSLWCLVKGFYPSDIAVEWESNGQPENNYKTTPPVLDSDGSFFLYSKLTVDKSRWQQGNVFSCSVMHEALHNHYTQKSLSLSPGK
chain 2: DIQMTQSPSSLSASVGDRVTITCQASQDISNYLNWYQQKPGKAPKLLIYDASNLETGVPSRFSGSGSGTDFTFTISSLQPEDIATYFCQHFDHLPLAFGGGTKVEIKTVAAPSVFIFPPQAVVTQEPSLTVSPGGTVTLTCRSSTGAVTTSNYANWVQQKPDHLFRGLIGGTNKRAPGTPARFSGSLLGDKAALTISGAQPEDEAEYYCALWYSNLWVFGGGTKLTVLKRTVAAPSVFIFPPSDEQLKSGTASVVCLLNNFYPREAKVQWKVDNALQSGNSQESVTEQDSKDSTYSLSSTLTLSKADYEKHKVYACEVTHQGLSSPVTKSFNRGECDKTHTCPPCPAPPVAGPSVFLFPPKPKDTLMISRTPEVTCVVVDVSHEDPEVKFNWYVDGVEVHNAKTKPREEQYNSTYRVVSVLTVLHQDWLNGKEYKCKVSNKGLPSSIEKTISKAKGQPREPQVCTLPPSRDELTKNQVSLSCAVKGFYPSDIAVEWESNGQPENNYKTTPPVLDSDGSFFLVSKLTVDKSRWQQGNVFSCSVMHEALHNHYTQKSLSLSPGK
notes: also called IgFD-33 (ProA)
B2: IgFD-32(anti-CD3/EGFR) (bispecific antibody, human IgG1, kappa, lambda)
chain 1: EVQLVESGGGLVQPGGSLRLSCAASGFTFNTYAMNWVRQAPGKGLEWVARIRSKYNNYATYYADSVKDRFTISRDDSKNTLYLQMNSLRAEDTAVYYCVRHGNFGNSYVSWFAYWGQGTLVTVSSASTKGPQVQLQESGPGLVKPSETLSLTCTVSGGSVSSGDYYWTWIRQSPGKGLEWIGHIYYSGNTNYNPSLKSRLTISIDTSKTQFSLKLSSVTAADTAIYYCVRDRVTGAFDIWGQGTMVTVSSASTKGPSVFPLAPSSKSTSGGTAALGCLVKDYFPEPVTVSWNSGALTSGVHTFPAVLQSSGLYSLSSVVTVPSSSLGTQTYICNVNHKPSNTKVDKKVEPKSCDKTHTCPPCPAPPVAGPSVFLFPPKPKDTLMISRTPEVTCVVVDVSHEDPEVKFNWYVDGVEVHNAKTKPREEQYNSTYRVVSVLTVLHQDWLNGKEYKCKVSNKGLPSSIEKTISKAKGQPREPQVYTLPPCRDELTKNQVSLWCLVKGFYPSDIAVEWESNGQPENNYKTTPPVLDSDGSFFLYSKLTVDKSRWQQGNVFSCSVMHEALHNHYTQKSLSLSPGK
chain 2: not shown
notes: (ProA)/(CH1) = purification resin; also called IgFD-32(ProA); IgFD-32(CH1)

Key:
EGFR on F98-EGFR cells [1] = target: T1, EGFR on F98-EGFR cells (UniProt P00533 25-1210, limits assumed); experiment: flow cytometry on F98-EGFR cells
T1 construct: whole, on cells
Protocol: F98-EGFR cells (a DMEM containing 10% FBS, 200 μg/ml G418) were cultured. 2×10⁵ cells were washed by precooled PBS for 3 times, and blocked by 2% FBS (soluble to PBS). IgFD-8, IgFD-9, IgFD-10, IgFD-11, IgFD-18, IgFD-19, IgFD-25, IgFD-26 or IgFD-31 (aEGFR expressed in a laboratory as a control) was added and incubated for 2 h at 4° C. (cells were gently mixed during incubation), unbounded antibodies were washed by 2% FBS (soluble to PBS), and then the remaining cells were incubated by FITC anti-human IgGFc(KPL, Inc., MD) for 1 h at 4° C., and washed by 2% FBS (soluble to PBS) for flow cytometry analysis. As shown in FIG. 7 and Table 4, the anti-CD3/anti-EGFR heterodimers in different forms of fusion could bind to EGFR on F98-EGFR cells, and there was no significant difference in the binding capacity of different heterodimers to F98-EGFR.

[2] = target: T2, CD3 on T cells (Jurkat T cells; PBMC-T cells); experiment: flow cytometry on Jurkat T cells; protein purified on Protein A resin
T2 construct: whole, on cells; the target is inferred from the anti-CD3 arm of the constructs

[3] = target: T2, CD3 on T cells (Jurkat T cells; PBMC-T …); experiment: flow cytometry on Jurkat T cells; protein purified on CH1 resin
EGFR on F98-EGFR cells [4] = target: T1, EGFR on F98-EGFR cells; experiment: flow cytometry on F98-EGFR cells; protein purified on Protein A resin
EGFR on F98-EGFR cells [5] = target: T1, EGFR on F98-EGFR cells; experiment: flow cytometry on F98-EGFR cells; protein purified on CH1 resin

T2 sequence (P07766 23-207): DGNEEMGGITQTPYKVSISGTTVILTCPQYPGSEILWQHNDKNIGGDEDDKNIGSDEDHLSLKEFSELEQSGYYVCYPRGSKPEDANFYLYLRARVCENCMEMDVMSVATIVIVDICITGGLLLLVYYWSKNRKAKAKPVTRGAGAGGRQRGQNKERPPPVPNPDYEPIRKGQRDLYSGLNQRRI

Row | Binder | Kd (EGFR on F98-EGFR cells [1]) | Kd [2] | Kd [3] | Kd (EGFR on F98-EGFR cells [4]) | Kd (EGFR on F98-EGFR cells [5])
1 | B1 | 2.42 nM | 50.7 nM |  |  | 
2 | B2 |  | 7.13 nM | 8.45 nM | 19.6 nM | 12.8 nM

Source: patent publication US20220089722A1 (NANTONG YICHEN BIOPHARMA, published 2022)
